Measured values reported in US20140162945A1 (BEIJING HANMI PHARMACEUTICAL, published 2014).
Where no end group is shown, it is not given here. [ ]: non-standard residue; d: D form. Phe(4-NO2) = N[C@@H](Cc1ccc([N+](=O)[O-])cc1)C(=O)O; Phe(4-F) = N[C@@H](Cc1ccc(F)cc1)C(=O)O; Met(O) = CS(=O)CC[C@H](N)C(=O)O; Phg = N[C@H](C(=O)O)c1ccccc1; Nle = CCCC[C@H](N)C(=O)O; Aib = CC(C)(N)C(=O)O

T1: human GIP receptor (human, UniProt P48546 22-466)
T1 sequence (looked up): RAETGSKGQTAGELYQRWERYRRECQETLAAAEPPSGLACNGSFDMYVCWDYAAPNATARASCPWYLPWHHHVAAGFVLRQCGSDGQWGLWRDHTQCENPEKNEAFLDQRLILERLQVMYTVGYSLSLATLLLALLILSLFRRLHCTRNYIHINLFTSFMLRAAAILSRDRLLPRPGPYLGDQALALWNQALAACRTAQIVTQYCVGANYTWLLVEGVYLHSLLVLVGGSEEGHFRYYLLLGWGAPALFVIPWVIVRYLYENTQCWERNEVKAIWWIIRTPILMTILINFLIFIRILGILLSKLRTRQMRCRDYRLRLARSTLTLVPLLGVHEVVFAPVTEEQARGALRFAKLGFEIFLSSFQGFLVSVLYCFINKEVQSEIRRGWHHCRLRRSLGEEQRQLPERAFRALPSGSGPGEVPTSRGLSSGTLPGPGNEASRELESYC

B1: Analog 006 (peptide)
peptide: Y[Aib]EGTFISDYSIA[Met(O)]EKIHQQDFVNWLLAQ-NH2
modifications: N-terminus assumed
SMILES: CC[C@H](C)[C@H](NC(=O)[C@H](CO)NC(=O)[C@H](Cc1ccc(O)cc1)NC(=O)[C@H](CC(=O)O)NC(=O)[C@H](CO)NC(=O)[C@@H](NC(=O)[C@H](Cc1ccccc1)NC(=O)[C@@H](NC(=O)CNC(=O)[C@H](CCC(=O)O)NC(=O)C(C)(C)NC(=O)[C@@H](N)Cc1ccc(O)cc1)[C@@H](C)O)[C@@H](C)CC)C(=O)N[C@@H](C)C(=O)N[C@@H](CCS(C)=O)C(=O)N[C@@H](CCC(=O)O)C(=O)N[C@@H](CCCCN)C(=O)N[C@H](C(=O)N[C@@H](Cc1c[nH]cn1)C(=O)N[C@@H](CCC(N)=O)C(=O)N[C@@H](CCC(N)=O)C(=O)N[C@@H](CC(=O)O)C(=O)N[C@@H](Cc1ccccc1)C(=O)N[C@H](C(=O)N[C@@H](CC(N)=O)C(=O)N[C@@H](Cc1c[nH]c2ccccc12)C(=O)N[C@@H](CC(C)C)C(=O)N[C@@H](CC(C)C)C(=O)N[C@@H](C)C(=O)N[C@@H](CCC(N)=O)C(N)=O)C(C)C)[C@@H](C)CC
B2: Analog 025 (peptide)
peptide: Y[Aib]EGTFTSDYSIYMEKQAAKEFIAWLVKG-NH2
modifications: N-terminus assumed
SMILES: CC[C@H](C)[C@H](NC(=O)[C@H](Cc1ccccc1)NC(=O)[C@H](CCC(=O)O)NC(=O)[C@H](CCCCN)NC(=O)[C@H](C)NC(=O)[C@H](C)NC(=O)[C@H](CCC(N)=O)NC(=O)[C@H](CCCCN)NC(=O)[C@H](CCC(=O)O)NC(=O)[C@H](CCSC)NC(=O)[C@H](Cc1ccc(O)cc1)NC(=O)[C@@H](NC(=O)[C@H](CO)NC(=O)[C@H](Cc1ccc(O)cc1)NC(=O)[C@H](CC(=O)O)NC(=O)[C@H](CO)NC(=O)[C@@H](NC(=O)[C@H](Cc1ccccc1)NC(=O)[C@@H](NC(=O)CNC(=O)[C@H](CCC(=O)O)NC(=O)C(C)(C)NC(=O)[C@@H](N)Cc1ccc(O)cc1)[C@@H](C)O)[C@@H](C)O)[C@@H](C)CC)C(=O)N[C@@H](C)C(=O)N[C@@H](Cc1c[nH]c2ccccc12)C(=O)N[C@@H](CC(C)C)C(=O)N[C@H](C(=O)N[C@@H](CCCCN)C(=O)NCC(N)=O)C(C)C
B3: Analog 023 (peptide)
peptide: Y[Aib]EGTFTSDYSIYMEKEAVREFIAWLVKG-NH2
modifications: N-terminus assumed
SMILES: CC[C@H](C)[C@H](NC(=O)[C@H](Cc1ccccc1)NC(=O)[C@H](CCC(=O)O)NC(=O)[C@H](CCCNC(=N)N)NC(=O)[C@@H](NC(=O)[C@H](C)NC(=O)[C@H](CCC(=O)O)NC(=O)[C@H](CCCCN)NC(=O)[C@H](CCC(=O)O)NC(=O)[C@H](CCSC)NC(=O)[C@H](Cc1ccc(O)cc1)NC(=O)[C@@H](NC(=O)[C@H](CO)NC(=O)[C@H](Cc1ccc(O)cc1)NC(=O)[C@H](CC(=O)O)NC(=O)[C@H](CO)NC(=O)[C@@H](NC(=O)[C@H](Cc1ccccc1)NC(=O)[C@@H](NC(=O)CNC(=O)[C@H](CCC(=O)O)NC(=O)C(C)(C)NC(=O)[C@@H](N)Cc1ccc(O)cc1)[C@@H](C)O)[C@@H](C)O)[C@@H](C)CC)C(C)C)C(=O)N[C@@H](C)C(=O)N[C@@H](Cc1c[nH]c2ccccc12)C(=O)N[C@@H](CC(C)C)C(=O)N[C@H](C(=O)N[C@@H](CCCCN)C(=O)NCC(N)=O)C(C)C

Key:
Experiment in all cases: cell-based or functional assay
[1] = biological target: T2, human GLP-1 receptor (human, UniProt P43220 24-463)
[2] = biological target: T1, human GIP receptor
[3] = biological target: T2, human GLP-1 receptor; remark: listed apart in the source
[4] = biological target: T1, human GIP receptor; remark: listed apart in the source

T2 sequence (P43220 24-463): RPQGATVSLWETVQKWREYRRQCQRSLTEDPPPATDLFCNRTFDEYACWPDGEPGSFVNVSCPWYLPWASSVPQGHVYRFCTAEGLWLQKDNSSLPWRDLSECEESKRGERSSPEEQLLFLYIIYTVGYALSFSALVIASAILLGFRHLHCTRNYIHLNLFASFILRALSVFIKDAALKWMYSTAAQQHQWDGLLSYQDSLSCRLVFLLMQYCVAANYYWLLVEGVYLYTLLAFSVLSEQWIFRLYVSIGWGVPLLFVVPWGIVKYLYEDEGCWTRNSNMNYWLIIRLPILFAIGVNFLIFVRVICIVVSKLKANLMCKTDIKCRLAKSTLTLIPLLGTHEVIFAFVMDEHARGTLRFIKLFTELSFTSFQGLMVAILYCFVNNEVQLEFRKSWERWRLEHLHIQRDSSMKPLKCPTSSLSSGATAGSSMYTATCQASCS

Row | Binder | EC50, GLP-1 Receptor cAMP induction [1] [nM] | EC50, GIP Receptor cAMP induction [2] [nM] | Relative Potency, GIP Receptor [2] [%] | EC50, GLP-1R cAMP induction [3] [nM] | EC50, GIPR cAMP induction [4] [nM] | Relative Potency, GLP-1 Receptor [1] [%]
1 | Y[Aib]EGTFTSDYSIY[Nle]EKIHQQDFVNWLVRQ-NH2 [Analog 021] | 217 | 2.3 | 21.7 | – | – | –
2 | Y[Aib]EGTFTSDYSI[Phe(4-NO2)][Nle]EKIHQQDFVNWLLAQ-NH2 [Analog 008] | 1580 | 24.2 | – | – | – | –
3 | Y[Aib]EGTFTSDYSIY[Nle]EKEAQQDFVNWLLAQ-NH2 [Analog 020] | 830 | 0.27 | 51.8 | – | – | –
4 | B1 | > 2000 | 6.66 | – | – | – | –
5 | Y[Aib]EGTFTSDYSIYMEKIHQQDFVNWLLAQ-NH2 [Analog 003] | 483 | 0.18 | 77.7 | – | – | –
6 | Y[Aib]EGTFTSDYSI[Phg][Nle]EKIHQQDFVNWLLAQ-NH2 [Analog 009] | > 2000 | 22.2 | – | – | – | –
7 | Y[Aib]EGTFTSDYSI[Phe(4-F)][Met(O)]EKIHQQDFVNWLLAQ-NH2 [Analog 004] | 926 | 14.6 | – | – | – | –
8 | B2 | 0.837 | 1.5 | 33.3 | 0.837 | 1.5 | 131
9 | Y[Aib]EGTFISDYSIA[Nle]EKIHQQDFVNWLLAQ-NH2 [Analog 010] | > 2000 | 11.5 | – | – | – | –
10 | Y[Aib]EGTFTSDYSIF[Met(O)]EKIHQQDFVNWLLAQ-NH2 [Analog 007] | 836 | 19 | – | – | – | –
11 | B3 | 1.28 | 0.088 | 107 | 1.28 | 0.088 | 75
12 | Y[Aib]EGTFTSDYSIF[Nle]EKIHQQDFVNWLLAQ-NH2 [Analog 011] | 1480 | 693 | – | – | – | –
13 | Y[Aib]EGTFTSDYSI[Phe(4-NO2)][Met(O)]EKIHQQDFVNWLLAQ-NH2 [Analog 005] | > 2000 | 76.5 | – | – | – | –
14 | Y[Aib]EGTFTSDYSI[Phe(4-NO2)]MEKIHQQDFVNWLLAQ-NH2 [Analog 016] | 1670 | 18.3 | – | – | – | –
